Assay [1] addresses T1, SARS-CoV-2 RBD protein (SARS-CoV-2, UniProt P0DTC2 319-541).
T1 construct: domain: RBD
As to the kind of experiment: indirect binding ELISA, CoV-2 RBD coated.

The target in assay [2] is T1, SARS-CoV-2 RBD protein. Kind of assay: competitive ELISA as for the GB Quads, ACE2 Ig coated.
Assay [3] deals with T1, SARS-CoV-2 RBD protein.
Assay [4] concerns the target T1, SARS-CoV-2 RBD protein. This is another data set of the same source.
Assay [5] has as its target T1, SARS-CoV-2 RBD protein. This is another data set of the same source.

The IC50 is the midpoint of a concentration-inhibition curve. Higher therefore signals lower potency.

Read-outs that look alike come from different tables or passages of the source.

B1: QB-FE VHH (monovalent) (VHH)
VHH: QVQLVESGGGSVQAGGSLRLSCAASGTIAHIKYLGWFRQAPGKEREGVAALMTKWGQTYYADSVKGRFTVSLDNAKNTVYLQMNSLKPEDTALYYCAAASYGANFPLKASDYSYWGQGTQVTVS
As for B1, the binding result with SARS-CoV-2 RBD protein [1] is recorded as “no binding (tested: 100 nM)”.

B2: QB-FE mIg-TD Quad (VHH)
VHH: QVQLVESGGGSVQAGGSLRLSCAASGTIAHIKYLGWFRQAPGKEREGVAALMTKWGQTYYADSVKGRFTVSLDNAKNTVYLQMNSLKPEDTALYYCAAASYGANFPLKASDYSYWGQGTQVTVSS
notes: as m58
B2 displayed an IC50 with SARS-CoV-2 RBD protein [2] of 80 pM. This counts as picomolar.

B3: Q177 (VHH QB-GB-TD) (VHH)
VHH: QVQLQESGGGLVQAGGSLRLSCAASGRTFSEYAMGWFRQAPGKEREFVATISWSGGSTYYTDSVKGRFTISRDNAKNTVYLQMNSLKPDDTAVYYCAAAGLGTVVSEWDYDYDYWGQGTQVTVSS
Consider B3, for which it took 64.9 pM to reach half-maximal inhibition in the assay with SARS-CoV-2 RBD protein [3] (IC50).

B4: Q179 (VHH QB-GB Ig-TD) (VHH)
VHH: B3 VHH
Regarding B4, in the assay with SARS-CoV-2 RBD protein [3], the IC50 is 32.8 pM.

B5: Q185 (VHH QB-GB dimeric TD) (VHH)
VHH: B3 VHH
As to B5, the IC50 was 23.7 pM with SARS-CoV-2 RBD protein [3] and 14.7 pM with SARS-CoV-2 RBD protein [4].

B6: Q178 (VHH QB-GB IgG, non-Quad format) (VHH)
VHH: B3 VHH
On to B6, for which the 50% inhibitory concentration (IC50) in the assay with SARS-CoV-2 RBD protein [3] was 185 pM.

B7: Q180/Q182 (VHH QB-GB Fab-like Ig, non-Quad format) (VHH)
heavy: not shown
light: QVQLQESGGGLVQAGGSLRLSCAASGRTFSEYAMGWFRQAPGKEREFVATISWSGGSTYYTDSVKGRFTISRDNAKNTVYLQMNSLKPDDTAVYYCAAAGLGTVVSEWDYDYDYWGQGTQVTVSSGGGGSGGGGSKRTVAAPSVFIFPPSDEQLKSGTASVVCLLNNFYPREAKVQWKVDNALQSGNSQESVTEQDSKDSTYSLSSTLTLSKADYEKHKVYACEVTHQGLSSPVTKSFNRGEC
On to B7, for which inhibition in the assay with SARS-CoV-2 RBD protein [3] was half-maximal at 77.8 pM (IC50).

B8: Q184/Q182 (VHH QB-GB Fab-like mIg-TD) (VHH)
heavy: QVQLQESGGGLVQAGGSLRLSCAASGRTFSEYAMGWFRQAPGKEREFVATISWSGGSTYYTDSVKGRFTISRDNAKNTVYLQMNSLKPDDTAVYYCAAAGLGTVVSEWDYDYDYWGQGTQVTVSSGGGGSGGGGSASTKGPSVFPLAPSSKSTSGGTAALGCLVKDYFPEPVTVSWNSGALTSGVHTFPAVLQSSGLYSLSSVVTVPSSSLGTQTYICNVNHKPSNTKVDKKVEPKSCDKTHTAPELLGGPSVFLFPPKPKDTLMISRTPEVTCVVVDVSHEDPEVKFNWYVDGVEVHNAKTKPREEQYNSTYRVVSVLTVLHQDWLNGKEYKCKVSNKALPAPIEKTISKAKGQPREPQVYTLPPSRDELTKNQVSLTCLVKGFYPSDIAVEWESNGQPENNYKTTPPVLDSDGSFFLYSKLTVDKSRWQQGNVFSCSVMHEALHNHYTQKSLSLSPGKKKKPLDGEYFTLQIRGRERFEMFRELNEALELKDAQAGKEPG
light: B7 light
Turning to B8, the half-maximal inhibitory concentration (IC50) with SARS-CoV-2 RBD protein [3] was found to be 34.2 pM.

B9: Q183/Q182 (VHH QB-GB Fab-like TD) (VHH)
heavy: QVQLQESGGGLVQAGGSLRLSCAASGRTFSEYAMGWFRQAPGKEREFVATISWSGGSTYYTDSVKGRFTISRDNAKNTVYLQMNSLKPDDTAVYYCAAAGLGTVVSEWDYDYDYWGQGTQVTVSSGGGGSGGGGSASTKGPSVFPLAPSSKSTSGGTAALGCLVKDYFPEPVTVSWNSGALTSGVHTFPAVLQSSGLYSLSSVVTVPSSSLGTQTYICNVNHKPSNTKVDKKVEPKSCDKTHTKKKPLDGEYFTLQIRGRERFEMFRELNEALELKDAQAGKEPG
light: B7 light
In the assay with SARS-CoV-2 RBD protein [3], B9 registered a half-maximal inhibitory concentration (IC50) of 31.2 pM.

B10: Q181/Q182 (VHH QB-GB Fab-like Ig-TD) (VHH)
heavy: not shown
light: B7 light
In the assay with SARS-CoV-2 RBD protein [3], B10 had an IC50 of 15.4 pM. Against the preceding molecule, the IC50 is about 2-fold lower.

B11: Q186/Q182 (VHH QB-GB Fab'-like TD, octavalent GB Quad) (VHH)
heavy: QVQLQESGGGLVQAGGSLRLSCAASGRTFSEYAMGWFRQAPGKEREFVATISWSGGSTYYTDSVKGRFTISRDNAKNTVYLQMNSLKPDDTAVYYCAAAGLGTVVSEWDYDYDYWGQGTQVTVSSGGGGSGGGGSASTKGPSVFPLAPSSKSTSGGTAALGCLVKDYFPEPVTVSWNSGALTSGVHTFPAVLQSSGLYSLSSVVTVPSSSLGTQTYICNVNHKPSNTKVDKKVEPKSCDKTHTCPPCPAPELLGGKKKPLDGEYFTLQIRGRERFEMFRELNEALELKDAQAGKEPG
light: B7 light
On to B11, for which the IC50 with SARS-CoV-2 RBD protein [3] was 14.8 pM; with SARS-CoV-2 RBD protein [4], 8.3 pM.

B12: Q185B (tandem GB VHH-hinge-TD) (VHH)
chain: QVQLQESGGGLVQAGGSLRLSCAASGRTFSEYAMGWFRQAPGKEREFVATISWSGGSTYYTDSVKGRFTISRDNAKNTVYLQMNSLKPDDTAVYYCAAAGLGTVVSEWDYDYDYWGQGTQVTVSSGGSGGSQVQLQESGGGLVQAGGSLRLSCAASGRTFSEYAMGWFRQAPGKEREFVATISWSGGSTYYTDSVKGRFTISRDNAKNTVYLQMNSLKPDDTAVYYCAAAGLGTVVSEWDYDYDYWGQGTQVTVSSGGGGSGGGGSEPKSCDKTHTCPPCPAPELLGGKKKPLDGEYFTLQIRGRERFEMFRELNEALELKDAQAGKEPG
B12 showed an IC50 with SARS-CoV-2 RBD protein [5] of 0.03 pM.

For the origin of these results see patent publication US20230250156A1 (QUADRUCEPT BIO, published 2023).
